Source: US20150344570A1 (published 2015)

T1: FcγRIIb extracellular domain with C-terminal His tag (human, UniProt P31994 43-217)
T1 construct: extracellular domain; also called 2b; FcgRIIb; not shown: His tag at the C terminus
T1 sequence (looked up): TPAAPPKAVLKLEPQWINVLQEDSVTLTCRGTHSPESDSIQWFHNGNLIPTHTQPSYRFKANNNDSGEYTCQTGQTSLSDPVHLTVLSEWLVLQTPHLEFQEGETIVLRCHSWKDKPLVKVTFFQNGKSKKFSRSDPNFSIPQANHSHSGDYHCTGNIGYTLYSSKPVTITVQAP

B1: GpH7-A5/GpH7-B3 variant G237_02A/GpL16-k0 (antibody, human IgG1, kappa)
heavy 1: not shown
heavy 2: not shown
light: DIVMTQSPLSLPVTPGEPASISCQASESLVHSNRNTYLHWYLQKPGQSPQLLIYKVSNRFSGVPDRFSGSGSGTDFTLKISRVEAEDVGVYYCSQNTHVPPTFGQGTKVEIERTVAAPSVFIFPPSDEQLKSGTASVVCLLNNFYPREAKVQWKVDNALQSGNSQESVTEQDSKDSTYSLSSTLTLSKADYEKHKVYACEVTHQGLSSPVTKSFNRGEC
notes: IgG1, anti-glypican-3; also called He Ab
B2: GpH7-A5/GpH7-B3 variant G237_19Q/GpL16-k0 (antibody, human IgG1, kappa)
heavy 1: not shown
heavy 2: not shown
light: B1 light
notes: as for B1
B3: GpH7-A5/GpH7-B3 variant G236_18N/GpL16-k0 (antibody, human IgG1, kappa)
heavy 1: not shown
heavy 2: not shown
light: B1 light
notes: as for B1
B4: GpH7-A5/GpH7-B3 variant G237_16H/GpL16-k0 (antibody, human IgG1, kappa)
heavy 1: not shown
heavy 2: not shown
light: B1 light
notes: as for B1
B5: GpH7-A5/GpH7-B3 variant G236_13S/GpL16-k0 (antibody, human IgG1, kappa)
heavy 1: not shown
heavy 2: not shown
light: B1 light
notes: as for B1
B6: GpH7-A5/GpH7-B3 variant G237_04F/GpL16-k0 (antibody, human IgG1, kappa)
heavy 1: not shown
heavy 2: not shown
light: B1 light
notes: as for B1
B7: GpH7-A5/GpH7-B3 variant G237_09D/GpL16-k0 (antibody, human IgG1, kappa)
heavy 1: not shown
heavy 2: not shown
light: B1 light
notes: as for B1
B8: GpH7-A5/GpH7-B3 variant G237_06M/GpL16-k0 (antibody, human IgG1, kappa)
heavy 1: not shown
heavy 2: not shown
light: B1 light
notes: as for B1
B9: GpH7-A5/GpH7-B3 variant G237_08L/GpL16-k0 (antibody, human IgG1, kappa)
heavy 1: not shown
heavy 2: not shown
light: B1 light
notes: as for B1
B10: GpH7-A5/GpH7-B3 variant G237_15Y/GpL16-k0 (antibody, human IgG1, kappa)
heavy 1: not shown
heavy 2: not shown
light: B1 light
notes: as for B1
B11: GpH7-A5/GpH7-B3 variant G237_18N/GpL16-k0 (antibody, human IgG1, kappa)
heavy 1: not shown
heavy 2: not shown
light: B1 light
notes: as for B1
B12: GpH7-A5/GpH7-B3 variant G237_13S/GpL16-k0 (antibody, human IgG1, kappa)
heavy 1: not shown
heavy 2: not shown
light: B1 light
notes: as for B1
B13: GpH7-A5/GpH7-B3 variant G237_05P/GpL16-k0 (antibody, human IgG1, kappa)
heavy 1: not shown
heavy 2: not shown
light: B1 light
notes: as for B1
B14: GpH7-A5/GpH7-B3 variant G237_20W/GpL16-k0 (antibody, human IgG1, kappa)
heavy 1: not shown
heavy 2: not shown
light: B1 light
notes: as for B1
B15: GpH7-A5/GpH7-B3 variant L234_09D/GpL16-k0 (antibody, human IgG1, kappa)
heavy 1: not shown
heavy 2: not shown
light: B1 light
notes: as for B1
B16: GpH7-A5/GpH7-B3 variant G236_09D/GpL16-k0 (antibody, human IgG1, kappa)
heavy 1: not shown
heavy 2: not shown
light: B1 light
notes: as for B1
B17: GpH7-A5/GpH7-B3 variant G236_11K/GpL16-k0 (antibody, human IgG1, kappa)
heavy 1: not shown
heavy 2: not shown
light: B1 light
notes: as for B1
B18: GpH7-A5/GpH7-B3 variant G237_10E/GpL16-k0 (antibody, human IgG1, kappa)
heavy 1: not shown
heavy 2: not shown
light: B1 light
notes: as for B1

target: T2, FcγRIIIa extracellular domain with C-terminal His tag (human, UniProt P08637 17-208); assay: SPR (Biacore), relative to GpH7-A5/GpH7-B3/GpL16-k0 = 100
T2 construct: extracellular domain; also called 3a; FcgRIIIa; not shown: His tag at the C terminus
T2 sequence (P08637 17-208): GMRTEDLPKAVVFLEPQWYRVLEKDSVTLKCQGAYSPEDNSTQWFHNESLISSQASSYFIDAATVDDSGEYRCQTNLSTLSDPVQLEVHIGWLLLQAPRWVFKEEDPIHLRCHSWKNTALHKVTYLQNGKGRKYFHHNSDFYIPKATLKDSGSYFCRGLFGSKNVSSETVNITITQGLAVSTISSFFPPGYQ

| He/Con_3a | Binder |
| --- | --- |
| 48.8 % (control = 100) | B1 |
| 43.3 % (control = 100) | B2 |
| 37.8 % (control = 100) | B3 |
| 17.2 % (control = 100) | B4 |
| 64.8 % (control = 100) | B5 |
| 25.3 % (control = 100) | B6 |
| 17.7 % (control = 100) | B7 |
| 31.9 % (control = 100) | B8 |
| 24.9 % (control = 100) | B9 |
| 22.1 % (control = 100) | B10 |
| 20.3 % (control = 100) | B11 |
| 38.4 % (control = 100) | B12 |
| 10.9 % (control = 100) | B13 |
| 19.7 % (control = 100) | B14 |
| 117 % (control = 100) | B15 |
| 71.2 % (control = 100) | B16 |
| 18.6 % (control = 100) | B17 |
| 25.4 % (control = 100) | B18 |

target: T1, FcγRIIb extracellular domain with …; assay: as above

| He/Con_2b | Binder |
| --- | --- |
| 124 % (control = 100) | B1 |
| 108 % (control = 100) | B2 |
| 96.4 % (control = 100) | B3 |
| 55.2 % (control = 100) | B4 |
| 96.7 % (control = 100) | B5 |
| 149 % (control = 100) | B6 |
| 223 % (control = 100) | B7 |
| 130 % (control = 100) | B8 |
| 148 % (control = 100) | B9 |
| 152 % (control = 100) | B10 |
| 180 % (control = 100) | B11 |
| 111 % (control = 100) | B12 |
| 24.6 % (control = 100) | B13 |
| 193 % (control = 100) | B14 |
| 150 % (control = 100) | B15 |
| 167 % (control = 100) | B16 |
| 49.8 % (control = 100) | B17 |
| 114 % (control = 100) | B18 |

target: T2, FcγRIIIa extracellular domain with …; assay: SPR (Biacore); ratio of He/Con_3a (FcγRIIIa) to He/Con_2b (FcγRIIb)

| He_3a/2b (IIIa/IIb) | Binder |
| --- | --- |
| 0.39 | B1 |
| 0.4 | B2 |
| 0.39 | B3 |
| 0.31 | B4 |
| 0.67 | B5 |
| 0.17 | B6 |
| 0.08 | B7 |
| 0.25 | B8 |
| 0.17 | B9 |
| 0.14 | B10 |
| 0.11 | B11 |
| 0.35 | B12 |
| 0.44 | B13 |
| 0.1 | B14 |
| 0.78 | B15 |
| 0.43 | B16 |
| 0.37 | B17 |
| 0.22 | B18 |
